{"source": "paper PMC11127761", "about": "“Development of a Neuropeptide Y-Sensitive Implantable Microelectrode for Continuous Measurements”", "binders": {"B1": {"name": "Aptamer 4.31 (ssDNA)", "DNA": "AGCAGCACAGAGGTCAGATGCAAACCACAGCCTGAGTGGTTAGCGTATGTCATTTACGGACCTATGCGTGCTACCGTGAA", "modifications": "5' thiol C6 (disulfide reduced), 3' amino linker"}}, "target": "Neuropeptide Y (NPY) (UniProt P01303 29-64)", "test": "electrochemical aptasensor (SWV, steady state); 1-1000 pg/mL; best NPY response of the three aptamers; aCSF pH 7.4 (composition by citation); SWV -0.4 to 0.0 V, 30 Hz; IPA 500 Hz in flow cell; assay temperature not stated", "settings": "protein: commercial; label: 3' methylene blue; immobilized on Pt via 5' thiol"}
{"binder": "B1", "values": [{"measurement": "binding result", "value": "binds"}]}
